One block for each binder: values may come before it.
Columns and labels:
[1] = molecular target: T1, mouse membrane-bound BLyS on P388 plasma membranes (mouse, UniProt Q9WU72 1-309); assay: competition phage ELISA on P388 membranes
T1 construct: whole, on cells; Plasma membrane preparations, not intact cells
Procedure: The ability of the 5 scFvs listed in Table 8 to also recognize murine membrane-bound BLyS was determined using a competition ELISA. This assay assesses the ability of test phage scFvs to bind to the membrane-bound form of BLyS on the murine cell line, P388, plasma membranes in the presence of different forms of competing human BLyS. Competing BLyS was either presented as the His-tagged form of BLyS, or soluble BLyS. ScFvs that recognize mouse membrane-bound BLyS would give an ELISA signal on the P388 plasma membranes that is competed out by pre-incubation with HIS-tagged BLyS but not by pre-incubation with soluble BLyS.
P388 plasma membranes (50 μl per well) were coated at 10 μg/ml in PBS onto Falcon 96-well plates overnight at 4° C. The method is otherwise essentially as described Example 16.

[2] = molecular target: T2, Tumour Necrosis Factor-alpha (human, UniProt P01375 77-233); assay: phage ELISA
T2 construct: also called TNFα; TNF-α
Procedure: (§1) To determine the specificity of the 48 scFvs, a phage ELISA was performed against human and mouse BLyS, and a panel of related and unrelated human antigens: Fas ligand, TRAIL, TNFα, TNFβ, and PBS. The: Fas ligand, TRAIL, TNFα, and TNFβ antigens were obtained from R&D Systems, Minneapolis, Minn. Individual E. coli colonies containing phagemid were inoculated into 5 ml 2YTAG and incubated at 37° C. for 4 hours, shaking. M13KO7 helper phage (Pharmacia) was added to each tube to a MOI of 10 and incubated […] 1 hour, the first 30 minutes static and the final 30 minutes with gentle shaking. Cells were pelleted by centrifugation at 3,500 rpm for 10 minutes and the supernatant discarded. Cell pellets were resuspended in 5 ml 2TYAK and incubated at 30° C. overnight with shaking. The next day, the cells were pelleted by centrifugation at 3,500 rpm for 10 minutes. The phage-containing supernatant (5 ml) was carefully transferred to a fresh tube, 1 ml of 6MPBS was added, and the tube was incubated at room temperature for 1 hour to pre-block the phage prior to ELISA.
(§2) All antigens were coated at 1 μg/ml. ELISAs were performed essentially as described in Example 2. The only exception to this being the detection of phage antibody binding to mouse BLyS where the step involving incubation with the HRP-labelled anti-mouse polymer was omitted. Binding to mouse BLyS was detected with TMB as in Example 2.

[3] = molecular target: T3, Tumour Necrosis Factor-beta (human, UniProt P01374 35-205); assay: phage ELISA
T3 construct: also called TNFβ; TNF-β
T3 sequence (looked up): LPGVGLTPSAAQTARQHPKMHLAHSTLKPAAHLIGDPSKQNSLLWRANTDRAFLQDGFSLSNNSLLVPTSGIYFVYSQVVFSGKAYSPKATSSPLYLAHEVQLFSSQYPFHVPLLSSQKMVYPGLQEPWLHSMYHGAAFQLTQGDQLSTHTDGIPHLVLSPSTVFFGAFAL
Procedure: as §1, §2

T1 sequence (Q9WU72 whole entry): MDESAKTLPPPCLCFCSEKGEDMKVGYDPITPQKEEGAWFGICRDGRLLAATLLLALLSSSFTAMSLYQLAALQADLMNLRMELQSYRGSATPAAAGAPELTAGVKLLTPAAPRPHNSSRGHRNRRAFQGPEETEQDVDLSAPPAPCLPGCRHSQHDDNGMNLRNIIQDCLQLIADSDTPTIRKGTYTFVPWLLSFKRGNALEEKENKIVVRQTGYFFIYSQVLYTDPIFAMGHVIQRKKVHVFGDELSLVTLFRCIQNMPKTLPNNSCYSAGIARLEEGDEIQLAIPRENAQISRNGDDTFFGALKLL
T2 sequence (P01375 77-233 limits assumed): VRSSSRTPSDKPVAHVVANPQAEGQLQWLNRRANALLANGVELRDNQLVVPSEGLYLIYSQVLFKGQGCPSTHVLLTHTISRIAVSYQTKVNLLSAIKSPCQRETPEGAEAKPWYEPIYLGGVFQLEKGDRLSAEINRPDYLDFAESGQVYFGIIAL

B1: I082H08 (scFv)
scFv: EVQLVESGGGLVQPGGSLRLSCAASGFTFSDYGMHWVRQRPGKGLEWIAFIGSDGSNKYYGDTVKGRFTISRDNAKNSLYLQMNSLRAEGTAVYYCARDWDMDVWGQGTMVTVSSGGGGSGGGGSGGGGSSHVILTQPRSVSGSPGQSVTISCTGTSSDVGGYHYVSWYQQHPGKAPRLMIYEVTKRPSGVSNRFSGSKSGNTASLTISGVQAEDEADYYCSSYTSASTVIFGGGTKLTVLG
- binding result [1]: binds

B2: I050A07 (scFv)
scFv: QVQLVQSGAEVKKPGASMKVSCKASAGRASAYGFAMHPIHWVRQAPGQGLEWMGWINGGTGNTKYSEKFLGRVTMTSDTSATTAYMELSSLRSEDTAVYYCARQDNDPLTGYKLGFDYWGKGTLVTVSSGGGGSGGGGSGGGGSAQSVVTQPPSVSGAPGQRVTISCTGSSTNVGAGYGVHWYQQFPETAPKLLIYGGSNRPSGVPDRFSGSQSGTSASLAITGLQAEDEADYYCQSYDTTLSGYVFGTGTKVTVLG
- binding result [2]: no binding

B4: I016F04 (scFv)
scFv: QVQLQQSGSELKKPGASVKVSCKVSGYSLTKMSMHWVRQSPGEGLEWVGGIDPETRQPVYAQKFQGRVTITKDTSASAAYMELSSLGSEDTALYYCARATYDPLTGYSFDGFDIWGQGTLVTVSSGGGGSGGGGSGGGGSQSVLTQPASVSGSPGQSITISCTGTSSDVGGYNYVSWYQQHPGKAPKLMIYEGSKRPSGVSNRFSGSKSGNTASLTISGLQAEDEADYYCSSYTTRSTRVFGGGTKLTVLG
- binding result [3]: no binding

B5: I001C09 (scFv)
scFv: GVQLVQSGPEVKKPGASVKVSCTASGYTFTSYGVSWVRQAPGQGLEWIGWISAHNGQTKYAEKFQGRVTMTRNTSISTAYMELSSLRSEDTAVYYCARDGSYDILTGYYIDNYMDVWGKGTMVTVSSGGGGSGGGGSGGGGSSELTQDPAVSVALGQTVRITCQGDSLRSYYTNWFQQKPGQAPLLVVYAKNKRPSGIPDRFSGSSSGNTASLTITGAQAEDEADYYCHSRDSSGNHVLFGGGTKLTVLG
- binding result [2]: no binding

Continued, values first:

- binding result [1]: binds
B3: I099D03 (scFv)
scFv: QVQLVQSGAEVKKPGASVRVSCKSSGYTFTNYGISWVRQAPGQGLEWMGWISNNNGKTYYAQKVQGRVTMTTDTSTSTDYMELRGLRSDDTAIYYCARDNGGGTIGFDYWGRGTLVTVSSGGGGSGGGGSGGGGSAQAVLTQPSSVSGAPGQRVTMSCTGSSSNIGAGYDVHWYQQLPGTAPKLLIYDNTNRPSGVPDRFSGSRSGTSASLAITGLQAEDEADYFCQSYDITLSAVFGTGTKVTVLG

- binding result [1]: binds
B6: I079E02 (scFv)
scFv: QVQLVQSGAEVKKPGSSVKVSCKASGGTFSSYAISWVRQAPGQGLEWMGGIIPIFGTANYAQKFQGRVTITADKSTSTAYMELSSLRSDDTAVYYCARDSGSYYYDAFDIWGKGTMVTVSSGGGGSGGGGSGGGGSDIVMTQSPSTLSASVGDRVTITCRASQGISSWLAWYQQKPGKAPKLLIYAASSLQSGVPSRFSGSGSGTDFTLTISSLQPEDFATYYCQQANSFPLTFGGGTKVEIKR
